Results published in article PMC2756588.

T1: Pin3, Q06449
T1 sequence (Q06449 53-122, looked up): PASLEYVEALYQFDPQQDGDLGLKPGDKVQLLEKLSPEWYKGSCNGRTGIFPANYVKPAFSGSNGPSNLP

T2: Cyk3, Q07533
T2 sequence (Q07533 1-83, looked up): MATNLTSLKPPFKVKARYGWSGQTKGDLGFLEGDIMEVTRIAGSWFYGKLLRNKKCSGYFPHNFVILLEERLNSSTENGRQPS

T3: Nbp2, Q12163
T3 sequence (Q12163 103-180, looked up): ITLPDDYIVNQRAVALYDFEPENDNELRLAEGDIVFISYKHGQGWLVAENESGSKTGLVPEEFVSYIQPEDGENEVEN

T4: Bzz1-2, P38822
T4 sequence (P38822 568-633, looked up): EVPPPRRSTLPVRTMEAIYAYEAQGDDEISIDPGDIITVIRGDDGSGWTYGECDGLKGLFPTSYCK

T5: Fus1, P11710
T5 sequence (P11710 432-512, looked up): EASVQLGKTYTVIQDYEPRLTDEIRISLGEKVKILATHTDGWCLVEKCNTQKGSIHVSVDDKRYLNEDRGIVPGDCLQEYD

T6: Bbc1, P47068
T6 sequence (P47068 1-78, looked up): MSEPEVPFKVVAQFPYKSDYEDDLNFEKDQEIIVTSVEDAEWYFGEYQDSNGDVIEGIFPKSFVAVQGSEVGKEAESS

T7: Lsb3, P43603
T7 sequence (P43603 385-451, looked up): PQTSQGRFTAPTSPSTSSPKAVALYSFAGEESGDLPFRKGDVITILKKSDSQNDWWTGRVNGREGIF

T8: Bud14, P27637
T8 sequence (P27637 247-328, looked up): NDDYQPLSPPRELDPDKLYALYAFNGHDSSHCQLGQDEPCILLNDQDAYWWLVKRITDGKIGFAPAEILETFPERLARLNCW

T9: Boi1, P38041
T9 sequence (P38041 1-86, looked up): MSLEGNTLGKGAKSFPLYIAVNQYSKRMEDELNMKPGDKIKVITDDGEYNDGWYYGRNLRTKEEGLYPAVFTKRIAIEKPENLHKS

T10: Hse1, P38753
T10 sequence (P38753 208-285, looked up): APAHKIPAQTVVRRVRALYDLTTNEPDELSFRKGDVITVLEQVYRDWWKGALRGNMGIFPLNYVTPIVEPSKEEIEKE

T11: Hof1, Q05080
T11 sequence (Q05080 590-669, looked up): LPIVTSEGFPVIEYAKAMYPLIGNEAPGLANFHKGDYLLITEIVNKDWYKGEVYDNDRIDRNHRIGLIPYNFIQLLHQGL

T12: Abp1, P15891
T12 sequence (P15891 535-592, looked up): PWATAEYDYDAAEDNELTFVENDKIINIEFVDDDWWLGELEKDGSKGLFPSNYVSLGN

T13: Myo5, Q04439
T13 sequence (Q04439 1072-1160, looked up): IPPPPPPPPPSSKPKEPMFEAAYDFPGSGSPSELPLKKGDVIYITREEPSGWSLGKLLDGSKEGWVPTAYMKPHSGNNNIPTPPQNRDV

T14: Cdc25, P04821
T14 sequence (P04821 50-136, looked up): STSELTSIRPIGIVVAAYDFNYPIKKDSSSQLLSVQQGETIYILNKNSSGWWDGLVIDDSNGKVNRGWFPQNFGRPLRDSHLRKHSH

T15: Lsb4, P32793
T15 sequence (P32793 402-468, looked up): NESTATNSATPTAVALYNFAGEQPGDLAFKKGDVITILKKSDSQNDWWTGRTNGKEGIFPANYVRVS

T16: Bzz1-1, P38822
T16 sequence (P38822 478-572, looked up): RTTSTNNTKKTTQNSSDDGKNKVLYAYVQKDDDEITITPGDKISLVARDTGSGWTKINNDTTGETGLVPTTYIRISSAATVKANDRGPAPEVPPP

T17: Sla1-2, P32790
T17 sequence (P32790 60-140, looked up): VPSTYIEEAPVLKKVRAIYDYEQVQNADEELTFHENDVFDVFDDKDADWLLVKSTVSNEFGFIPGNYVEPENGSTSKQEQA

T18: Boi2, P39969
T18 sequence (P39969 32-116, looked up): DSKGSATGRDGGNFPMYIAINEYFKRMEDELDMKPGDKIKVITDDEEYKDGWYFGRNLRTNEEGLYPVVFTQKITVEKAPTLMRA

T19: Pex13, P80667
T19 sequence (P80667 295-386, looked up): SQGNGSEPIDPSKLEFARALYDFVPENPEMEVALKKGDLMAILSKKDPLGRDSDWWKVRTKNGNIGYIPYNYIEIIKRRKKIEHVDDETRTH

T20: Lsb1, P53281
T20 sequence (P53281 45-122, looked up): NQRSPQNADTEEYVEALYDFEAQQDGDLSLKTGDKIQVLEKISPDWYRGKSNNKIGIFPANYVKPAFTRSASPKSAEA

T21: Sla1-3, P32790
T21 sequence (P32790 344-424, looked up): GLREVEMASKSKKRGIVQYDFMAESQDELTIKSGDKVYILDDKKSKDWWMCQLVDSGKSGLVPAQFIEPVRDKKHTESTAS

B1: unnamed (peptide)
chain: KDKSRPPRPPPKPLH
B2: unnamed (peptide)
chain: PHNPSPFFPPPDFND
B3: unnamed (peptide)
chain: ERPKRRAPPPVPKKP

Each binder was assayed against T1, Pin3, Q06449 (assay: SPOT array). Conditions: median of control spots 2171.

Question: Which SPOT intensity does the source give for B1 here?
Answer: 0

Question: Which SPOT intensity does the source give for B2 here?
Answer: 0

Question: With B3 as the binder, how does the SPOT intensity read?
Answer: 11

What follows are binders tested against Bem1-2, P29366 (assay: SPOT array). Conditions: median of control spots 4347.
Chain of Bem1-2, P29366 (P29366 139-227): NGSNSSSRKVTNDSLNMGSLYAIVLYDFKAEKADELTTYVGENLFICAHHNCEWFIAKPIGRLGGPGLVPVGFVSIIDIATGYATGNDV

Question: B1 was tested. Which SPOT intensity did it give?
Answer: 0

Question: B2 was tested. Which SPOT intensity did it give?
Answer: 0

Question: Which SPOT intensity does the source give for B3 here?
Answer: 279

The binders below were run against T2, Cyk3, Q07533 (assay: SPOT array). Conditions: median of control spots 1451.

Question: Which SPOT intensity does the source give for B1 here?
Answer: 0

Question: With B2 as the binder, how does the SPOT intensity read?
Answer: 0

Question: How did the SPOT intensity turn out when B3 was run?
Answer: 0

The binders below were run against T3, Nbp2, Q12163 (assay: SPOT array). Conditions: median of control spots 357.

Question: Which SPOT intensity does the source give for B1 here?
Answer: 2

Question: With B2 as the binder, how does the SPOT intensity read?
Answer: 0

Question: B3 was tested. Which SPOT intensity did it give?
Answer: 58

What follows are binders tested against Sho1, P40073 (assay: SPOT array). Conditions: median of control spots 1148.
Chain of Sho1, P40073 (P40073 287-367): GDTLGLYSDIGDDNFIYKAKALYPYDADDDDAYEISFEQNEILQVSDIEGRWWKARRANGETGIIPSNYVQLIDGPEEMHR

Question: For B1, which SPOT intensity is on record?
Answer: 202

Question: For B2, which SPOT intensity is on record?
Answer: 0

Question: B3 was tested. Which SPOT intensity did it give?
Answer: 311

These binders were tested against T4, Bzz1-2, P38822 (assay: SPOT array). Conditions: median of control spots 4538.

Question: B1 was tested. Which SPOT intensity did it give?
Answer: 0

Question: With B2 as the binder, how does the SPOT intensity read?
Answer: 0

Question: Which SPOT intensity does the source give for B3 here?
Answer: 791

What follows are binders tested against T5, Fus1, P11710 (assay: SPOT array). Conditions: median of control spots 1200.

Question: With B1 as the binder, how does the SPOT intensity read?
Answer: 0

Question: With B2 as the binder, how does the SPOT intensity read?
Answer: 0

Question: B3 was tested. Which SPOT intensity did it give?
Answer: 0

What follows are binders tested against T6, Bbc1, P47068 (assay: SPOT array). Conditions: median of control spots 796.

Question: For B1, which SPOT intensity is on record?
Answer: 4

Question: With B2 as the binder, how does the SPOT intensity read?
Answer: 0

Question: B3 was tested. Which SPOT intensity did it give?
Answer: 282

What follows are binders tested against T7, Lsb3, P43603 (assay: SPOT array). Conditions: median of control spots 406.

Question: With B1 as the binder, how does the SPOT intensity read?
Answer: 162

Question: For B2, which SPOT intensity is on record?
Answer: 0

Question: With B3 as the binder, how does the SPOT intensity read?
Answer: 188

These binders were tested against T8, Bud14, P27637 (assay: SPOT array). Conditions: median of control spots 956.

Question: How did the SPOT intensity turn out when B1 was run?
Answer: 0

Question: Which SPOT intensity does the source give for B2 here?
Answer: 0

Question: With B3 as the binder, how does the SPOT intensity read?
Answer: 0

What follows are binders tested against T9, Boi1, P38041 (assay: SPOT array). Conditions: median of control spots 1162.

Question: For B1, which SPOT intensity is on record?
Answer: 2

Question: How did the SPOT intensity turn out when B2 was run?
Answer: 0

Question: With B3 as the binder, how does the SPOT intensity read?
Answer: 0

What follows are binders tested against Bem1-1, P29366 (assay: SPOT array). Conditions: median of control spots 4282.
Chain of Bem1-1, P29366 (P29366 55-141): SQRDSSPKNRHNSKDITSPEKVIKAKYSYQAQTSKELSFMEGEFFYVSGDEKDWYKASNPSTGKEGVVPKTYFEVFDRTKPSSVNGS

Question: With B1 as the binder, how does the SPOT intensity read?
Answer: 0

Question: Which SPOT intensity does the source give for B2 here?
Answer: 0

Question: Which SPOT intensity does the source give for B3 here?
Answer: 0

What follows are binders tested against T10, Hse1, P38753 (assay: SPOT array). Conditions: median of control spots 1727.

Question: Which SPOT intensity does the source give for B1 here?
Answer: 20

Question: With B2 as the binder, how does the SPOT intensity read?
Answer: 0

Question: How did the SPOT intensity turn out when B3 was run?
Answer: 57

What follows are binders tested against T11, Hof1, Q05080 (assay: SPOT array). Conditions: median of control spots 4086.

Question: How did the SPOT intensity turn out when B1 was run?
Answer: 0

Question: For B2, which SPOT intensity is on record?
Answer: 0

Question: With B3 as the binder, how does the SPOT intensity read?
Answer: 0

The binders below were run against T12, Abp1, P15891 (assay: SPOT array). Conditions: median of control spots 935.

Question: For B1, which SPOT intensity is on record?
Answer: 339

Question: Which SPOT intensity does the source give for B2 here?
Answer: 0

Question: How did the SPOT intensity turn out when B3 was run?
Answer: 673

What follows are binders tested against T13, Myo5, Q04439 (assay: SPOT array). Conditions: median of control spots 471.

Question: How did the SPOT intensity turn out when B1 was run?
Answer: 10

Question: B2 was tested. Which SPOT intensity did it give?
Answer: 244

Question: Which SPOT intensity does the source give for B3 here?
Answer: 180

Each binder was assayed against Myo3, P36006 (assay: SPOT array). Conditions: median of control spots 468.

Question: Which SPOT intensity does the source give for B1 here?
Answer: 104

Question: For B2, which SPOT intensity is on record?
Answer: 319

Question: B3 was tested. Which SPOT intensity did it give?
Answer: 358

What follows are binders tested against GST (assay: SPOT array). Conditions: median of control spots 978.

Question: For B1, which SPOT intensity is on record?
Answer: 0

Question: With B2 as the binder, how does the SPOT intensity read?
Answer: 0

Question: With B3 as the binder, how does the SPOT intensity read?
Answer: 0

What follows are binders tested against T14, Cdc25, P04821 (assay: SPOT array). Conditions: median of control spots 969.

Question: With B1 as the binder, how does the SPOT intensity read?
Answer: 2

Question: How did the SPOT intensity turn out when B2 was run?
Answer: 0

Question: With B3 as the binder, how does the SPOT intensity read?
Answer: 4

These binders were tested against T15, Lsb4, P32793 (assay: SPOT array). Conditions: median of control spots 397.

Question: Which SPOT intensity does the source give for B1 here?
Answer: 114

Question: How did the SPOT intensity turn out when B2 was run?
Answer: 0

Question: With B3 as the binder, how does the SPOT intensity read?
Answer: 89

The binders below were run against T16, Bzz1-1, P38822 (assay: SPOT array). Conditions: median of control spots 4446.

Question: Which SPOT intensity does the source give for B1 here?
Answer: 50

Question: B2 was tested. Which SPOT intensity did it give?
Answer: 0

Question: With B3 as the binder, how does the SPOT intensity read?
Answer: 160

These binders were tested against T17, Sla1-2, P32790 (assay: SPOT array). Conditions: median of control spots 712.

Question: With B1 as the binder, how does the SPOT intensity read?
Answer: 0

Question: Which SPOT intensity does the source give for B2 here?
Answer: 0

Question: B3 was tested. Which SPOT intensity did it give?
Answer: 0

The binders below were run against T18, Boi2, P39969 (assay: SPOT array). Conditions: median of control spots 1161.

Question: B1 was tested. Which SPOT intensity did it give?
Answer: 0

Question: With B2 as the binder, how does the SPOT intensity read?
Answer: 0

Question: Which SPOT intensity does the source give for B3 here?
Answer: 0

What follows are binders tested against T19, Pex13, P80667 (assay: SPOT array). Conditions: median of control spots 1341.

Question: B1 was tested. Which SPOT intensity did it give?
Answer: 8

Question: For B2, which SPOT intensity is on record?
Answer: 70

Question: For B3, which SPOT intensity is on record?
Answer: 62

The binders below were run against T20, Lsb1, P53281 (assay: SPOT array). Conditions: median of control spots 388.

Question: Which SPOT intensity does the source give for B1 here?
Answer: 7

Question: How did the SPOT intensity turn out when B2 was run?
Answer: 0

Question: For B3, which SPOT intensity is on record?
Answer: 326

These binders were tested against Rvs167, P39743 (assay: SPOT array). Conditions: median of control spots 2707.
Chain of Rvs167, P39743 (P39743 419-482): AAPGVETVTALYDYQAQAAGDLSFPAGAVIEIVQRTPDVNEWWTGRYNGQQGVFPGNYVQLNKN

Question: B1 was tested. Which SPOT intensity did it give?
Answer: 0

Question: Which SPOT intensity does the source give for B2 here?
Answer: 0

Question: Which SPOT intensity does the source give for B3 here?
Answer: 10

What follows are binders tested against T21, Sla1-3, P32790 (assay: SPOT array). Conditions: median of control spots 5475.

Question: Which SPOT intensity does the source give for B1 here?
Answer: 1

Question: With B2 as the binder, how does the SPOT intensity read?
Answer: 0

Question: For B3, which SPOT intensity is on record?
Answer: 2610
